Reference: patent US6667173B2, “Nucleic acids encoding platelet derived growth factor-alpha receptors” (The Schepens Eye Research Institute, priority 2000, dated 2003)
Entries after “also recorded” stand apart in the source; their conditions may differ.

Key:
[1] = system: PI3K; experiment: In vitro PI3K activity assay of αPDGFR immunoprecipitates; format: biochemical, mouse; conditions: immunoprecipitates of F cells ± 50 ng/ml PDGF-BB
Method: To measure the PI3K activity that coprecipitated with the PDGFRs, the receptor immunoprecipitates were subjected to an in vitro PI3K kinase assay. Aliquots of the immunoprecipitates used in FIG. 10B were subjected to a PI3K activity assay. This assay detects PI3K that has co-precipitated with the αPDGFR. The PI3K assay was performed as previously described. Kazlauskas, A. et al. (1990) Embo. J. 9:3279. Briefly, immunoprecipitated αPDGFR from approximately 5×10^5 cells were incubated with phosphatidyl inositol in the presence of [^32P]-γATP. The reactions were terminated and the phospholipids were extracted and purified by chromatography. The radioactive product of the reaction (phosphoinositide 3 phosphate) was detected by autoradiography.

[2] = system: F cells; experiment: Collagen gel contraction assay of F cells expressing αPDGFR mutants; format: cell-based, mouse; conditions: PDGF-BB (50 ng/ml), 48 hours
Method: The contraction assay was based on a previously described reference, Skuta, G. et al. (1999) J. Biol. Chem. 274:30163, with the following modifications. Fα cells were suspended in 1.5 mg/ml of neutralized collagen I (Cohesion vitrogen 100, Palo Alto, Calif.) at a density of 10^6 cells/ml, and were transferred into the 24-well plate (Falcon, Franklyn Lakes, N.J.) that had been preincubated with phosphate-buffer saline (PBS) with 5 mg/ml of bovine serum albumin (BSA) overnight. The gel was solidified by incubating at 37° C. for 90 minutes, and then the well was flooded with DMEM+5 mg/ml of BSA supplemented with an amount of vitreous such that the final concentration of vitreous in the culture medium was 1, 5 or 20%. The gels were incubated at 37° C. with 5% CO2. The initial gel diameter was 15 mm. The media was replaced every 24 hours and the gel diameter was measured after 48 hours. The extent of contraction was calculated by subtracting the diameter of the well at 48 hours from the initial diameter (15 mm). Each experimental condition was assayed in triplicate, and at least three independent experiments were performed. Unpaired t-test was performed to detect statistic difference in contraction assay.
To determine the signaling pathways that drive contraction, cells expressing the αPDGFR mutants were subjected to the collagen gel contraction assay described above. Accordingly, F cells expressing the indicated αPDGFRs were subjected to the collagen gel assay in the presence of buffer, PDGF-BB (50 ng/ml), TGFβ1 (1 ng/ml), or FBS (10%). The data presented are the mean±standard deviation measured at the 48 hours time point. Each experimental condition was assayed in triplicate, and at least 3 independent experiments were performed.

[3] = system: PI3K (p85); experiment: Co-immunoprecipitation of the regulatory subunit of PI3K (p85) with αPDGFR mutants in F cells; format: cell-based, mouse; conditions: 50 ng/ml PDGF-BB, 5 minutes
Method: (§1) The ability of the αPDGFR mutants to undergo ligand dependent tyrosine phosphorylation and to associate with signaling enzymes was then tested. F cells expressing various αPDGFR mutants were grown to subconfluence and serum starved overnight. Cells were either left resting (−) or stimulated with 50 ng/ml PDGF-BB (+) for 5 minutes, and lysed. The αPDGFR was immunoprecipitated with αPDGFR antibody, as described above, and the resulting immunoprecipitates were resolved by 7.5% SDS-PAGE and transferred onto Immobilon. The segment of the blot containing the αPDGFR was first blotted with anti-phosphotyrosine antibodies, then stripped and reprobed with an anti-αPDGFR antibody. Portions of the membrane that contained the proteins of the appropriate molecular mass were immunoblotted for PLCγ, the regulatory subunit of PI3K (p85), or SHP-2. Crude rabbit anti-p85 antibody is from Dr. A. Toker (Beth Israel Hospital/Harvard Medical School, Boston, Mass.). The monoclonal antibodies against PLCγ and SHP-2 were purchased from Upstate Biotechnology Inc.

[4] = system: PLCγ; experiment: Co-immunoprecipitation of PLCγ with αPDGFR mutants in F cells; format: cell-based, mouse; conditions: 50 ng/ml PDGF-BB, 5 minutes
Method: as §1

[5] = system: rabbit eyes; experiment: Rabbit PVR model: F cells expressing αPDGFR mutants injected into the vitreous; format: in vivo; conditions: for potential to induce PVR (PVR score): up to 28 days after the surgery
Method: PVR was induced in the rabbit eyes as previously described (Andrews, A. et al. (1999) Invest. Ophthalmol. Vis. Sci. 40:2683 and Nakagawa, M. et al. (1995) Invest. Ophthalmol. Vis. Sci. 36:2388). Briefly, gas vitrectomy was performed by injecting 0.4 ml of expanding perfluoropropane gas (C3F8) into the vitreous cavity 4 mm posterior to the corneal limbus under anesthetical condition. Three days later, the rabbits were anesthetized and the pupils were dilated. 0.1 ml DMEM containing 1×10^5 of RCFs expressing empty vector or αPDGFR mutant were injected into the vitreous cavity together with 0.1 ml of PRP using 30 G needle. Ten rabbits underwent surgery for each cell population expressing the empty vector or the truncated, E587K, T665M, D818N, or V859M αPDGFR mutants. One rabbit in the D818N group died just after the surgery, therefore the total number is 9 for this group. The retinal status was evaluated with an indirect ophthalmoscope fitted with a +30 D fundus lens at 1, 4, 7, 14, 21, and 28 days after the surgery. The PVR was graded from 0 through 5 according to the Fastenberg score. Fastenberg, D. M. et al. (1982) Am. J. Ophthalmol. 93:565. The grading is as follows: 0; no abnormality, 1; vitreous strand, 2; traction of the retina, 3; partial retinal detachment (less than 2 quadrant), 4; extended (more than 2 quadrant) but not total retinal detachment, 5; total retinal detachment. All surgeries were performed under aseptic conditions and pursuant to the regulation of the ARVO Statement for the Use of Animals in Ophthalmic and Vision Research. Only the left eye of each rabbit was used for the experiments.
An important component of PVR is the traction force that is generated when cells of the epiretinal membrane contract. To test if the signaling enzymes that are required for contraction in the in vitro assays also participate in PVR, the cells expressing the various αPDGFR mutants, described in the previous Examples, were assayed in a rabbit PVR model, described above. In this model, rabbits first undergo gas vitrectomy, and then cells are coinjected with […]. The formation of an epiretinal membrane and retinal detachment is observed in living animals over 28 days.
Briefly, PVR was induced by introducing F cells expressing the indicated αPDGFR into the vitreous of the rabbit eyes. The PVR score was evaluated up to 28 days after the surgery according to the classification described above. The mean value and standard error of the scores in a group were indicated. Each group contained 9 or 10 rabbits; the response to parental F cells was previously reported (Andrews et al., supra), and was included here for comparison purposes.

[6] = system: SHP-2; experiment: Co-immunoprecipitation of SHP-2 with αPDGFR mutants in F cells; format: cell-based, mouse; conditions: 50 ng/ml PDGF-BB, 5 minutes
Method: as §1

[7] = system: GST-PLCγ; experiment: In vitro kinase assay of immunoprecipitated mutant αPDGFRs with exogenous substrate; format: biochemical; conditions: 292 immunoprecipitates, [32P]-γ ATP, 30° C., 5 min
Method: Mutant αPDGFRs were selectively immunoprecipitated with the 292 antibody, and samples representing 2×10^5 cells from 292 antibodies were subjected to an in vitro kinase assay. Immunoprecipitates were preincubated with 2 μg of GST protein for 10 min at 0° C., then 2 μg of Glutathione S-transferase fusion phospholipase C-gamma (GST-PLCγ, an exogenous substrate, 10 μCi of γ-[^32P] ATP (DuPont NEN Research Products, Boston, Mass.), and universal kinase buffer (UKB; 20 mM Pipes, pH 7.0, 10 mM MnCl2, 20 μg/ml aprotinin) were added. The samples were incubated at 30° C. for 5 min. The proteins were separated by 7.5% sodium dodecyl sulfate-polyacrylamide gel electrophoresis (SDS-PAGE), the gel was dried, and the radiolabeled protein was detected by autoradiography.

[8] = system: αPDGFR; conditions: cited from earlier work
[9] = system: αPDGFR; experiment: Ligand-dependent tyrosine phosphorylation of αPDGFR mutants in F cells; format: cell-based, human; conditions: 50 ng/ml PDGF-BB, 5 minutes
Method: as §1

[10] = system: Src family kinases; conditions: cited from earlier work

Molecule | PI3K activity coprecipitating with the receptor [1] | PDGF-dependent contraction [2] | recruitment of PI3K / p85 (Properties) [3] | recruitment or activation of PLCγ (Properties) [4] | time until PVR after injection of cells ([5]; rabbit, in vivo) | recruitment of SHP-2 (Properties) [6] | kinase activity towards exogenous substrate GST-PLCγ [7] | kinase activity of the receptor (Properties) [8] | PDGF-dependent tyrosine phosphorylation of the receptor [9] | potential to induce PVR (PVR score) [5] | recruitment or activation of Src family kinases (Properties) [10]
WT αPDGFR: wild type human αPDGFR, SEQ ID NO: 2, expressed in F cells (Fα cells) | coprecipitated | contracted | coprecipitated | coprecipitated | 2-3 weeks | coprecipitated | phosphorylated the exogenous substrate |  |  |  | 
R627: αPDGFR mutant, Lys to Arg substitution at 627, kinase inactive |  | no contraction | failed to recruit any of these signaling enzymes | failed to recruit any of these signaling enzymes |  | failed to recruit any of these signaling enzymes |  | Kinase inactive | not phosphorylated in response to PDGF | dramatically less able to cause the disease | 
F31/42: αPDGFR mutant, Tyr to Phe substitution at 731 and 742 | did not detectably coprecipitate | did not respond | failed to efficiently associate; also recorded: Fails to recruit PI3K |  |  |  |  |  |  |  | 
F7: αPDGFR mutant, Tyr to Phe substitution at 572, 574, 720, 731, 742, 988, and 1018 (protein, UniProt P16234 24-1089, looked up, variant Y572F Y574F Y720F Y731F Y742F Y988F Y1018F) Platelet-derived growth …: QLSLPSILPNENEKVVQLNSSFSLRCFGESEVSWQYPMSEEESSDVEIRNEENNSGLFVTVLEVSSASAAHTGLYTCYYNHTQTEENELEGRHIYIYVPDPDVAFVPLGMTDYLVIVEDDDSAIIPCRTTDPETPVTLHNSEGVVPASYDSRQGFNGTFTVGPYICEATVKGKKFQTIPFNVYALKATSELDLEMEALKTVYKSGETIVVTCAVFNNEVVDLQWTYPGEVKGKGITMLEEIKVPSIKLVYTLTVPEATVKDSGDYECAARQATREVKEMKKVTISVHEKGFIEIKPTFSQLEAVNLHEVKHFVVEVRAYPPPRISWLKNNLTLIENLTEITTDVEKIQEIRYRSKLKLIRAKEEDSGHYTIVAQNEDAVKSYTFELLTQVPSSILDLVDDHHGSTGGQTVRCTAEGTPLPDIEWMICKDIKKCNNETSWTILANNVSNIITEIHSRDRSTVEGRVTFAKVEETIAVRCLAKNLLGAENRELKLVAPTLRSELTVAAAVLVLLVIVIISLIVLVVIWKQKPRYEIRWRVIESISPDGHEFIFVDPMQLPYDSRWEFPRDGLVLGRVLGSGAFGKVVEGTAYGLSRSQPVMKVAVKMLKPTARSSEKQALMSELKIMTHLGPHLNIVNLLGACTKSGPIYIITEYCFYGDLVNYLHKNRDSFLSHHPEKPKKELDIFGLNPADESTRSFVILSFENNGDFMDMKQADTTQFVPMLERKEVSKYSDIQRSLYDRPASYKKKSMLDSEVKNLLSDDNSEGLTLLDLLSFTYQVARGMEFLASKNCVHRDLAARNVLLAQGKIVKICDFGLARDIMHDSNYVSKGSTFLPVKWMAPESIFDNLYTTLSDVWSYGILLWEIFSLGGTPYPGMMVDSTFYNKIKSGYRMAKPDHATSEVYEIMVKCWNSEPEKRPSFYHLSEIVENLLPGQYKKSYEKIHLDFLKSDHPAVARMRVDSDNAFIGVTYKNEEDKLKDWEGGLDEQRLSADSGFIIPLPDIDPVPEEEDLGKRNRHSSQTSEESAIETGSSSSTFIKREDETIEDIDMMDDIGIDSSDLVEDSFL |  | no contraction | failed to recruit any of these signaling enzymes; also recorded: Fails to recruit | failed to recruit any of these signaling enzymes; also recorded: Fails to recruit |  | failed to recruit any of these signaling enzymes; also recorded: Fails to recruit |  | kinase active | undergoes modest tyrosine phosphorylation | dramatically less able to cause the disease | Fails to recruit
